Several values for one entry are separate records, joined by “and”; a condition that tells them apart may be missing. Equal values may be shown once. Ends that are not written are not given here. 5(6)‑carboxyfluorescein = 5(6)-carboxyfluorescein on the N-terminus
T1: recombinant calprotectin B-RCAL lacking the His6-tag and with the heterodimer linker cleaved by 3C protease, … (human, cysteines replaced by serines | cysteines replaced by serines)
T1 construct: rest of the first HRV 3C site after cleavage (LEVLFQ/GP), worked out from the indicated cleavage site; S100A9, human; rest of the second HRV 3C site left on S100A9 after cleavage, worked out from the indicated cleavage site; rest of the second HRV 3C site after cleavage, worked out from the indicated cleavage site; S100A8, human; One heterodimer and one peptide in the asymmetric unit; the …
T1 chain 1: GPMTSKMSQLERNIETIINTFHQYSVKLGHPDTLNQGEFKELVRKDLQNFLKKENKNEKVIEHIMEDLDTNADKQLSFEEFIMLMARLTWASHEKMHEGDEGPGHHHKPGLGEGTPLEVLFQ
T1 chain 2: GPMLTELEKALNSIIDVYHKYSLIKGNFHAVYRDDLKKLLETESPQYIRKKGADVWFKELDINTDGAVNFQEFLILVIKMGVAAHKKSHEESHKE

T2: native calprotectin derived from granulocytes (human, UniProt P05109 1-93; P06702 1-114)
T2 construct: S100A8 (Mrp-8), human, native; S100A9 (Mrp-14), human, native; Tetramer with calcium, dimer with 1 mM EDTA; also called S100A8/S100A9; Mrp-8/Mrp-14; source: also native in human serum samples; copies: 2 + 2
T2 sequence (looked up) 1: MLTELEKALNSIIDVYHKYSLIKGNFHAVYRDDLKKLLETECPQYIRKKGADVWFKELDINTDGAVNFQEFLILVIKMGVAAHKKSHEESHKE
T2 sequence (looked up) 2: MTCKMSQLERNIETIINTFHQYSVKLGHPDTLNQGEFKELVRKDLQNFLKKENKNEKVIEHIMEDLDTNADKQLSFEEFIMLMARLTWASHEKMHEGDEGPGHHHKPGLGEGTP

B1: linear peptide 3 (peptide)
peptide: {5(6)‑carboxyfluorescein}-RSPESVAFPMFQSHWYSG
notes: phage-selected peptide 3 with its four cysteines replaced by serines; Synthesised on rink amide AM resin, so a C-terminal amide is likely (surmised); also called peptide 3 (linear; all four cysteines replaced with serines); source: synthetic peptide (Fmoc solid-phase synthesis, HPLC purified)
B2: B-RCAL (BÜHLMANN recombinant calprotectin; His6-linker-S100A9-linker-S100A8) (complex, human)
chain: MTCKMSQLERNIETIINTFHQYSVKLGHPDTLNQGEFKELVRKDLQNFLKKENKNEKVIEHIMEDLDTNADKQLSFEEFIMLMARLTWASHEKMHEGDEGPGHHHKPGLGEGTPLEVLFQGPMLTELEKALNSIIDVYHKYSLIKGNFHAVYRDDLKKLLETECPQYIRKKGADVWFKELDINTDGAVNFQEFLILVIKMGVAAHKKSHEESHKE
notes: S100A9 (Mrp-14), human; cleavable linker, HRV 3C protease recognition site (LEVLFQ/GP); not cleaved in this molecule; S100A8 (Mrp-8), human; With calcium two fusion chains form the calprotectin tetramer; without calcium (EDTA) a single fusion chain is the 'dimer' (S100A8/S100A9); also called heterodimeric fusion protein; source: provided by BÜHLMANN Laboratories AG

Legend:
[1] = biological target: T1, recombinant calprotectin B-RCAL lacking …; assay: crystal structure; co-crystallisation of cleaved cysteine-free calprotectin (440 μM) with 14-fold excess of linear peptide 3 and 1 mM CaCl2; sitting drop, 18 °C; 0.1 M MIB pH 6.0, 25% PEG 1500; settings: both partners purified
[2] = biological target: B2; assay: fluorescence polarisation; calprotectin serially diluted, fluorescent peptide at 20 nM; 20 mM HEPES, 100 mM NaCl, 2 mM CaCl2, pH 7.5, 1 mM DTT, 0.01% Tween-20; tetrameric calprotectin; Kd calculated on the concentration of the heterodimer (1:1 heterodimer:peptide); settings: both partners purified
[3] = biological target: T2, native calprotectin derived from …; assay: as above; settings: both partners purified
[4] = biological target: the molecule itself; assay: dynamic light scattering + other: mass photometry; B-RCAL in 20 mM HEPES, 100 mM NaCl, pH 7.5 with 2 mM CaCl2, 1 h at room temperature; tetramer = two B-RCAL fusion chains

Binder | binding result [1] | Kd [2] | Kd [3] [nM] | binding result [4]
B1 | binds | 26 nM and 20 nM | 26 | –
B2 | – | – | – | binds

From paper PMC10192418, “High-affinity peptides developed against calprotectin and their application as synthetic ligands in diagnostic assays” (Nature Communications, 2023)
